Data from patent publication US20120095193A1 (published 2012).

Legend:
human ADAMTS5 [1] = molecular target: T1, human ADAMTS5 (human, UniProt Q9UNA0 262-622, limits assumed); assay: Biacore, mAb down, no avidity
T1 construct: Octet and ELISA used 'recombinant human ADAMTS5'; also called recombinant human ADAMTS5; ADAMTS5 (R&D Systems 2198-AD)
T1 sequence: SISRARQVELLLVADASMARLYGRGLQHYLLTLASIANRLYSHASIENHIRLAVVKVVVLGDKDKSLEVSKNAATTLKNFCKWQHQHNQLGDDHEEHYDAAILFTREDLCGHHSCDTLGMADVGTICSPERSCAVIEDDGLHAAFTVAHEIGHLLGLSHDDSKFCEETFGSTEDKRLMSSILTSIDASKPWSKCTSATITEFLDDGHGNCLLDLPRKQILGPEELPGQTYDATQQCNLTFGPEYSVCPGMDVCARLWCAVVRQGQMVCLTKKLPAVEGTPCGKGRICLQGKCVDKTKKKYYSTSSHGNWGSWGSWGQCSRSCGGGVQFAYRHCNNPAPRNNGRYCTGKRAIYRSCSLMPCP

human ADAMTS5 [2] = molecular target: T1, human ADAMTS5; assay: Octet QK, antigen down, incl avidity
human ADAMTS5 [3] = molecular target: T1, human ADAMTS5; assay: Biacore, mAb down, no avidity; Biacore, mAb down, no avidity
human ADAMTS5 [4] = molecular target: T1, human ADAMTS5; assay: Biacore, mAb from culture supernatant captured on anti-human IgG, ADAMTS5 (R&D 2198-AD) at 64 nM, 1:1 fit

Kd (human ADAMTS5 [1]): 0.085 nM | Kd (human ADAMTS5 [2]): 0.0383 nM | kon (human ADAMTS5 [3]): 489000 M⁻¹ s⁻¹ | Kd (human ADAMTS5 [4]): 0.0848 nM | koff (human ADAMTS5 [4]): 4.15e-05 s⁻¹ | kon (human ADAMTS5 [4]): 489000 M⁻¹ s⁻¹
B1: BPC1659 (antibody, human IgG1, kappa)
heavy: not shown
light: DIQMTQSPSSLSASVGDRVTITCKASQSVGTTIVWYQQKPGKAPKLLIYSASNRHTGVPSRFSGSGSGTDFTLTISSLQPEDFATYYCQQYTSYPFTFGQGTKLEIKRTVAAPSVFIFPPSDEQLKSGTASVVCLLNNFYPREAKVQWKVDNALQSGNSQESVTEQDSKDSTYSLSSTLTLSKADYEKHKVYACEVTHQGLSSPVTKSFNRGEC
notes: Humanized, human gamma 1 wild type / kappa, with a fully functional Fc; also called 12F4 H4L0; 12F4 H4L0 IgG1 wt
